According to publication PMC7192592 (Nucleic Acids Research, 2020):
Residue numbers refer to the chain shown, from its start. Names may count otherwise.

Assays:
[1] = biological target: the molecule itself; test: FRET or BRET; donor- and acceptor-labeled cGAS^FL with 72-bp dsDNA, with or without Mn^2+ and/or Apcpp/Gpcpp (Supplementary Figure S2A)
[2] = biological target: the molecule itself; test: SEC; size-exclusion chromatography of cGAS^FL variants (Supplementary Figure S2B)

B1: TAMRA- or Cy5-labeled cGAS^FL (1:1 mixture of donor- and acceptor-labeled populations) (enzyme, human, UniProt Q8N884 2-522, looked up)
chain: QPWHGKAMQRASEAGATAPKASARNARGAPMDPTESPAAPEAALPKAGKFGPARKSGSRQKKSAPDTQERPPVRATGARAKKAPQRAQDTQPSDATSAPGAEGLEPPAAREPALSRAGSCRQRGARCSTKPRPPPGPWDVPSPGLPVSAPILVRRDAAPGASKLRAVLEKLKLSRDDISTAAGMVKGVVDHLLLRLKCDSAFRGVGLLNTGSYYEHVKISAPNEFDVMFKLEVPRIQLEEYSNTRAYYFVKFKRNPKENPLSQFLEGEILSASKMLSKFRKIIKEEINDIKDTDVIMKRKRGGSPAVTLLISEKISVDITLALESKSSWPASTQEGLRIQNWLSAKVRKQLRLKPFYLVPKHAKEGNGFQEETWRLSFSHIEKEILNNHGKSKTCCENKEEKCCRKDCLKLMKYLLEQLKERFKDKKHLDKFSSYHVKTAFFHVCTQNPQDSQWDRKDLGLCFDNCVTYFLQCLRTEKLENYFIPEFNLFSSNLIDKRSKEFLTKQIEYERNNEFPVFDEF
modifications: TAMRA or Cy5 label (site not stated)
binding result [1]: binds

B2: K173E/R176E-cGAS^FL (enzyme, human, UniProt Q8N884 2-522, looked up)
chain: B1 chain with K172E, R175E
stoichiometry N [2]: 2

B3: human full-length cGAS (cGAS^FL), wild-type (enzyme, UniProt Q8N884 2-522, looked up)
chain: B1 chain
stoichiometry N [2]: 2
